{
  "source": "paper PMC5814911",
  "about": "(Nucleic Acids Research, 2017)",
  "key": {"PobR": {"molecular_target": "T1, PobR (Streptomyces coelicolor, UniProt Q9Z4X2)", "T1 sequence (Q9Z4X2 1-524)": "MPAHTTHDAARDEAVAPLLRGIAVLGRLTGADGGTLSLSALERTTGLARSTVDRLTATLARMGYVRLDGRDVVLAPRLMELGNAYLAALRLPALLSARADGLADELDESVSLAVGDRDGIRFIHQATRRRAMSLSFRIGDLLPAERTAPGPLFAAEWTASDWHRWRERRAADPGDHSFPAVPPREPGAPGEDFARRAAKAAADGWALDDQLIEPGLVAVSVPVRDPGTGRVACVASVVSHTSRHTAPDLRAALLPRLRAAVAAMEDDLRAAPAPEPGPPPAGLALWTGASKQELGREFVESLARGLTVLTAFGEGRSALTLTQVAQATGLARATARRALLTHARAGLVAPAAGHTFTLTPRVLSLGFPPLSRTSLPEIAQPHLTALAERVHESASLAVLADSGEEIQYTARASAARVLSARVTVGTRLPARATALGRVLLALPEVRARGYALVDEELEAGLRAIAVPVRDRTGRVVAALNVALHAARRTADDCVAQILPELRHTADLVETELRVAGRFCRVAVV", "test": "ITC and crystal structure at […] Å", "assay_type": "binding"}, "[1]": {"molecular_target": "T2, PobR (PobRFL) (Streptomyces coelicolor (cosmid StE8; M600 is the wild-type strain used)) (UniProt Q9Z4X2)", "T2 sequence": "T1 sequence (Q9Z4X2 1-524)", "test": "DNase I footprinting"}, "[2]": {"molecular_target": "T2, PobR (PobRFL) (Streptomyces coelicolor (cosmid StE8; M600 is the wild-type strain used))", "test": "EMSA"}, "[3]": {"molecular_target": "PobR (product of SCO3209), full length, Streptomyces coelicolor (Streptomyces coelicolor)", "test": "SAXS"}, "[4]": {"molecular_target": "PobR (product of SCO3209), full length, Streptomyces coelicolor (Streptomyces coelicolor)", "test": "SEC"}},
  "data": [
    {"compound": "O=C(O)c1ccc(O)cc1", "note": "[PHB, para-hydroxybenzoate]", "values": [
      {"measurement": "Kd", "setting": "PobR", "value": "5.8 ± 0.5", "unit": "µM"}
    ]},
    {"compound": "GCATCGGTCGTTCCCTTCGATCGGCGTCGTTGCCTTGCTCGAGCCGGCAGTTGTTCGCGTCGCGTTGTCGCGTTGTCGCCTGTTCGCGTGGTGAAAATTTCTTCACCATCAACTGCGC (double strand) [118-bp pobA promoter probe, 5'-32P]", "values": [
      {"measurement": "binding", "setting": "[1]", "value": "binds"}
    ]},
    {"compound": "GCATCGGTCGTTCCCTTCGATCGGCGTCGTTGCCTTGCTCGAGCCGGCAGTTGTTCGCGTCGCGTTGTCGCGTTGTCGCCTGTTCGCGTGGTGAAAATTTCTTCACCATCAACTGCGC (double strand) [118-bp pobA promoter probe]", "values": [
      {"measurement": "binding", "setting": "[2]", "value": "binds"}
    ]},
    {"compound": "PobR (product of SCO3209), full length, Streptomyces coelicolor (natural protein)", "values": [
      {"measurement": "stoichiometry N", "setting": "[3]", "value": 2},
      {"measurement": "stoichiometry N", "setting": "[4]", "value": 2}
    ]}
  ]
}
